# B1: RecB: wild type RecB subunit of the E. coli RecBCD complex (T18 fusion, his-tagged or HaloTag according to test) (protein)
# chain: MSDVAETLDPLRLPLQGERLIEASAGTGKTFTIAALYLRLLLGLGGSAAFPRPLTVEELLVVTFTEAATAELRGRIRSNIHELRIACLRETTDNPLYERLLEEIDDKAQAAQWLLLAERQMDEAAVFTIHGFCQRMLNLNAFESGMLFEQQLIEDESLLRYQACADFWRRHCYPLPREIAQVVFETWKGPQALLRDINRYLQGEAPVIKAPPPDDETLASRHAQIVARIDTVKQQWRDAVGELDALIESSGIDRRKFNRSNQAKWIDKISAWAEEETNSYQLPESLEKFSQRFLEDRTKAGGETPRHPLFEAIDQLLAEPLSIRDLVITRALAEIRETVAREKRRRGELGFDDMLSRLDSALRSESGEVLAAAIRTRFPVAMIDEFQDTDPQQYRIFRRIWHHQPETALLLIGDPKQAIYAFRGADIFTYMKARSEVHAHYTLDTNWRSAPGMVNSVNKLFSQTDDAFMFREIPFIPVKSAGKNQALRFVFKGETQPAMKMWLMEGESCGVGDYQSTMAQVCAAQIRDWLQAGQRGEALLMNGDDARPVRASDISVLVRSRQEAAQVRDALTLLEIPSVYLSNRDSVFETLEAQEMLWLLQAVMTPERENTLRSALATSMMGLNALDIETLNNDEHAWDVVVEEFDGYRQIWRKRGVMPMLRALMSARNIAENLLATAGGERRLTDILHISELLQEAGTQLESEHALVRWLSQHILEPDSNASSQQMRLESDKHLVQIVTIHKSKGLEYPLVWLPFITNFRVQEQAFYHDRHSFEAVLDLNAAPESVDLAEAERLAEDLRLLYVALTRSVWHCSLGVAPLVRRRGDKKGDTDVHQSALGRLLQKGEPQDAAGLRTCIEALCDDDIAWQTAQTGDNQPWQVNDVSTAELNAKTLQRLPGDNWRVTSYSGLQQRGHGIAQDLMPRLDVDAAGVASVVEEPTLTPHQFPRGASPGTFLHSLFEDLDFTQPVDPNWVREKLELGGFESQWEPVLTEWITAVLQAPLNETGVSLSQLSARNKQVEMEFYLPISEPLIASQLDTLIRQFDPLSAGCPPLEFMQVRGMLKGFIDLVFRHEGRYYLLDYKSNWLGEDSSAYTQQAMAAAMQAHRYDLQYQLYTLALHRYLRHRIADYDYEHHFGGVIYLFLRGVDKEHPQQGIYTTRPNAGLIALMDEMFAGMTLEEA
# modifications: left off: T18 (Bordetella pertussis CyaA fragment), N-terminal, kept
# Legend:
# [1] = test system: E. coli BTH101 ∆recB strain (IMR04); experiment: UV survival assay (complementation of BTH101 ΔrecB); assay type: cell-based, Escherichia coli; settings: expressed from pUT18C in BTH101 ΔrecB; UV 5, 15 or 30 J/m^2; CFU; 2 to 3 biological replicates
# Description: Non-transformed BTH101 and BTH101 ∆recB served as positive and negative controls, respectively. All strains were cultured at 30°C to early exponential phase (OD600 around 0.2, measured by Nanodrop One) before treatment.
# For UV exposure, bacterial cultures were serially diluted 10-fold in LB. From each dilution, 5 µl was spotted onto four separate LB agar plates supplemented with IPTG (0.5 mM) and the appropriate antibiotics. Once droplets had dried, one plate was kept unexposed as a control, while the remaining three plates were subjected to UV irradiation at doses of 5, 15, or 30 J/m^2 using an CL-1000 ultraviolet crosslinker (UVP). Plates were incubated overnight at 30°C, after which colony-forming units (CFUs) were counted. Survival at each UV dose was calculated as the ratio of CFUs on the UV-exposed plates to CFUs on the unexposed control plate.
# [2] = test system: ΔrecA ΔrecB cells; experiment: DNA degradation assay after UV ("reckless" DNA degradation); assay type: cell-based, Escherichia coli; settings: expressed from pUT18C in ΔrecA ΔrecB; UV 50 J/m^2, 3 h; Hoechst 33258 microscopy
# Description: (§1) IMR13 (ΔrecA) served as a positive control for RecB-mediated DNA degradation, while IMR19 (ΔrecA ΔrecB) was used as a negative control.
# (§2) Overnight cultures were diluted to an OD600 of 0.01 into LB medium supplemented with appropriate antibiotics and incubated with shaking at 37°C until they reached an OD600 of 0.2. Each culture was split into two 1 ml aliquots. One aliquot was fixed immediately in ethanol (50% final concentration) to assess DNA content prior to UV exposure. The second aliquot was pelleted, resuspended in 1× PBS, and exposed to UV light at a dose of 50 J/m^2 (CL-1000 Ultraviolet crosslinker, UVP). […]
# (§3) Imaging was performed on a Leica DM6000 B fluorescence microscope equipped with a 100× oil immersion objective (Leica HCX Plan Apochromat 100×, 1.40 NA, PH3 CS), a Leica EL6000 metal-halide illumination system, and a Hamamatsu C9100-14 EM-CCD camera. For each sample, six fields of view were acquired, each including both phase-contrast and fluorescence channels. Fluorescence imaging was conducted using a narrow band-pass filter set optimized for CFP (Excitation: 426–446 nm; Emission: 460–500 nm; exposure time: 30 ms). All imaging parameters—including exposure time, illumination intensity, and gain—were kept constant across all strains, treatments, and replicates to ensure quantitative comparability and minimize experimental bias. […]
# [3] = target: β-clamp (Escherichia coli, UniProt P0A988); settings: N-terminally his-tagged RecB as bait, pBAD30, E. coli MG1655; anti-β-clamp western blot
# Description: His-tagged recB was cloned into the pBAD30 plasmid (kind gift from Prof. Michael T. Laub, MIT and Howard Hughes Medical Institute, USA) by Dongxuan Gene Technology Co. and transformed into E. coli MG1655. An overnight culture was diluted 1:100 into 1 l of LB broth supplemented with ampicillin (100 µg/ml). When the culture reached an OD600 of 0.5, expression was induced with 0.4% (w/v) L-arabinose. After 2 h of induction at 37°C, cells were harvested by centrifugation (4000 x g, 10 min), washed with Phosphate buffered saline (PBS), and crosslinked with 1% formaldehyde for 20 min at room temperature. Crosslinking was quenched by the addition of glycine to a final concentration of 2.5 M. The cell pellets were washed three times with PBS, flash-frozen in liquid nitrogen, and stored at −80°C.
# For lysis, cell pellets were resuspended in 10 ml of lysis buffer (50 mM Tris–HCl, pH 8.0; 500 mM NaCl; 10 mM β-mercaptoethanol; 1 mg/ml lysozyme) and subjected to sonication in 3 × 15-s pulses (Vibra cell, Sonics & Materials, Inc., Newtown, CT, USA). […]
# After incubation for 30 min at 4°C with gentle rotation, beads were washed four times with wash buffer (50 mM sodium phosphate, pH 8.0; 300 mM NaCl; 0.01% (v/w) Tween-20). […] Beads were removed magnetically, and eluates were analyzed by SDS–polyacrylamide gel electrophoresis (PAGE). […]
# [4] = test system: BTH101 ΔrecB cells; experiment: Western blot of RecB expression level; parameters: species or system Escherichia coli; settings: pUT18C constructs in BTH101 ΔrecB; Ponceau S normalized; relative to BTH101 wild type
# Description: Samples, including purified RecB, β-clamp (purified as previously explained for co-immunoprecipitation), input (10 µg; 0.5%), and pull-down eluates, and samples from BTH101 cultures used in survival assays, were mixed with 1 mM dithiothreitol (DTT) and 1× NuPAGE LDS sample buffer, then heated to 75°C for 10 min. […] SeeBlue Plus2 Pre-stained Protein Standard (Invitrogen) was used as a molecular weight marker.
# Proteins were transferred onto 0.2-µm nitrocellulose membranes using the Trans-Blot Turbo Transfer System (Bio-Rad), and membranes were blocked in 5% (w/v) skim milk (Merck) in PBS-T (PBS with 0.1% Tween-20) for 45–60 min at room temperature. […] Following protein transfer, these membranes were also incubated in 0.1% (w/v) Ponceau S solution for 5 min to verify transfer efficiency and account for total protein loading. The stain was visualized, imaged for densitometric normalization, and subsequently removed by washing with deionized water prior to blocking. […]
# Relative RecB levels were quantified from the western blot images using Fiji (ImageJ) [58]. […] The lane profiles were plotted, and the measured signal from each lane was first normalized to the relevant Ponceau stain signal from the same lane and then to the wild-type strain.
# [5] = test system: ΔrecA ΔrecB cells; experiment: Basal DNA content without UV; assay type: cell-based, Escherichia coli; settings: expressed from pUT18C in ΔrecA ΔrecB; unchallenged; relative to ΔrecA ΔrecB cells
# Description: as §1, §2, §3
# Chain of β-clamp (P0A988 whole entry): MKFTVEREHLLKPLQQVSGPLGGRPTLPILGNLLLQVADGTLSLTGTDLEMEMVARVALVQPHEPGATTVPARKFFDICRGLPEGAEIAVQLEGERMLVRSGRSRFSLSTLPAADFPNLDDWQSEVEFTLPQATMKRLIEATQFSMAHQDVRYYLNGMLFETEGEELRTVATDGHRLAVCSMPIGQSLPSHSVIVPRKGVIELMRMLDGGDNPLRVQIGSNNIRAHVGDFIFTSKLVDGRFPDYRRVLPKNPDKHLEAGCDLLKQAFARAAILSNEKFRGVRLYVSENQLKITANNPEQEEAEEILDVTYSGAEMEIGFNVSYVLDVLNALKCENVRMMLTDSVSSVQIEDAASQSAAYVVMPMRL
molecule,measurement,setting,value
B1,survival after UV,[1],fully restores ΔrecB strain survival to the wild-type strain (BTH101) level
same,reckless DNA degradation after UV,[2],"restored the reckless degradation phenotype, comparable to that of the ΔrecA strain"
same,pull-down of β-clamp,[3],β-clamp was pulled down and exhibited a strong band on the membrane
same,RecB expression level relative to endogenous RecB,[4],more than eight times higher
same,basal degradation,[5],~50%

# — paper PMC13254535, “The RecBCD complex interacts directly with the DNA sliding clamp in Escherichia coli” (Nucleic Acids Research, 2026)
